Read-outs that look alike come from different tables or passages of the source.
T1: GST-ABP9 (Zea mays, UniProt D2KNW6 1-385)
T1 sequence: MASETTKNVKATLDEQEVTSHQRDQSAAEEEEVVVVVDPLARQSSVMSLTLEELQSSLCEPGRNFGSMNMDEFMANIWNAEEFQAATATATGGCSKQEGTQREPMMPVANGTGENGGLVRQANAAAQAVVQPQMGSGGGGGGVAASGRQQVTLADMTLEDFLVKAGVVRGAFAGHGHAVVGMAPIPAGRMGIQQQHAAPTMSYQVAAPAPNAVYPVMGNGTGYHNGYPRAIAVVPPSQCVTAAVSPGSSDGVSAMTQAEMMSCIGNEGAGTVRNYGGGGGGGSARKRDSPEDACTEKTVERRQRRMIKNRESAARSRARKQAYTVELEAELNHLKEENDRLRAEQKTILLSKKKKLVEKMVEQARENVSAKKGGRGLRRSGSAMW


Tests used:
GST-ABP9 [1] = target: T1, GST-ABP9; assay: EMSA
GST-ABP9 [2] = target: T1, GST-ABP9; assay: EMSA; remark: listed apart in the source

| Binder | binding result (GST-ABP9 [1]) | binding result (GST-ABP9 [2]) |
| --- | --- | --- |
| mABRE2 (dsDNA) DNA 1: GAAGTAACATGTTCGGTGG DNA 2: CCACCGAACATGTTACTTC | no binding | – |
| ABRE2 (dsDNA) DNA 1: GAAGTCCACGTGGAGGTGG DNA 2: CCACCTCCACGTGGACTTC | – | binds |
